{"source": "paper PMC7138811", "target": "T1, ASIC1a (human (endogenous in U251 MG, A172, A549)) (UniProt P78348)", "T1 sequence": "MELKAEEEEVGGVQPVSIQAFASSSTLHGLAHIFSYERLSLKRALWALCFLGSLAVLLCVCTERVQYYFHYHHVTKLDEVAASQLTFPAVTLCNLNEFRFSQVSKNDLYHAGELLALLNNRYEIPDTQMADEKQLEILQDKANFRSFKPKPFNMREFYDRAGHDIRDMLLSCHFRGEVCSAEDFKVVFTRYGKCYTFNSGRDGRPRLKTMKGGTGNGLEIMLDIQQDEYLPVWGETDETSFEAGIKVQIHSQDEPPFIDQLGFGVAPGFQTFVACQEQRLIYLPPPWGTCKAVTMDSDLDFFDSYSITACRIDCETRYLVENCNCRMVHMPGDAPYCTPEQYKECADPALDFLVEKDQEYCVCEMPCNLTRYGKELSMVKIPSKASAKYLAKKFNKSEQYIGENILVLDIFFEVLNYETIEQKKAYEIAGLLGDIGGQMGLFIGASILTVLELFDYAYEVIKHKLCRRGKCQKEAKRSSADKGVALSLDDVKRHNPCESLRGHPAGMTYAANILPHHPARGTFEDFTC"}
{"binder": "recombinant mambalgin-2 (peptide) LKCFQHGKVVTCHRDMKFCYHNTGMPFRNLKLILQGCSSSCSETENNKCCSTDRCNK", "values": [{"measurement": "growth of A172 glioma cells expressing the ASIC1a subunit, EC50", "value": 10, "unit": "nM"}, {"measurement": "growth of A549 lung carcinoma cells expressing the ASIC1a subunit, EC50", "value": 8, "unit": "nM"}, {"measurement": "growth of U251 MG glioma cells expressing the ASIC1a subunit, EC50", "value": 0.9, "unit": "nM"}]}
